Reference: the supplement of paper PMC9170038

Test system: MS2 coat protein
Experiment: apparent KD of MS2 coat protein; designed switch direction (-1 OFF switch, 1 ON switch): -1; higher = weaker reporter binding
In short: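 The reported apparent KD is a per-design median over clusters, from curve fits of normalised cluster fluorescence. Protein titrations used SNAP-549-labelled MS2 coat protein, doubled from 0.7 or 1.5 nM to 3 µM, in Tris-HCl pH 7.5 buffer with KCl, MgCl2, BSA, DTT, tRNA and Tween-20, with no input, 200 uM small-molecule ligand, or an oligonucleotide input. The RNA switches were transcribed on Illumina chips by stalled E. coli RNA polymerase.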

[1] = Eterna round: R95, input ligand: FMN 200 uM
[2] = Eterna round: R95, input ligand: microRNA oligo, concentration not stated
[3] = Eterna round: R95, input ligand: none
[4] = input ligand: microRNA oligo, concentration not stated

| Sequence | apparent KD of MS2 coat protein [1] [nM] | apparent KD of MS2 coat protein [2] [nM] | apparent KD of MS2 coat protein [3] [nM] | apparent KD of MS2 coat protein (input ligand: FMN 200 uM) [nM] | apparent KD of MS2 coat protein (input ligand: none) [nM] | apparent KD of MS2 coat protein [4] [nM] |
| --- | --- | --- | --- | --- | --- | --- |
| AGAUGUAGAUACCGAUCCUACAUGAGGAUCACCCAUGUAGCUAGACGUGCUCGCGUAGCUCGUCAGACUACCAGUAG [salish99_TOv1_r3_087] (puzzle: Sensor v3, turn-off variant 1) | 242 | 156 | 267 | – | – | – |
| UCGGCGCGAGGAUAUGCGGUUCCUGCUUCGGGCCGGAGCGUACAUGAGGAUCACCCAUGUAGAAGGCGCGCCGC [Apr-15 SS2-38] (puzzle: Exclusion 2) | – | 12.1 | – | – | – | – |
| UUAUUAAGUGUGAGGAUAUGCUGGUCCUUGGAUCAGCAGAAGGCACAUGAGGAUCACCCAUGUAAUAUAUUUAU [JL bmx4 3.09] (puzzle: Brourd's mod of Exclusion 4) | – | 75.8 | – | – | – | – |
| UUGUGCAAAGGAUAUACGUCCGACCUCGUGGAACUGAGAAUACAUGAGGAUCACCCAUGUAGAAGGUUGCCGAG [Racereus] (puzzle: Exclusion 2) | – | 10.5 | – | – | – | – |
| GUUGACGGAGGAUAUACAGCCGAGAUCCACCGUGUGGAGGAACAUGAGGAUCACCCAUGUAGAAGGCUGCAGUA [Eternabot (L2) Solution 92] (Eterna round: R97, puzzle: Exclusion 2) | – | – | – | 16 | 17.1 | – |
| AGGGAACGAGGAUAUCGAUGGUGGAACAUGAGGAUCACCCAUGUAUGAGAUAGAGUAGGGCGAGAAGGCGUUAAGA [JR_E5_Sub051] (puzzle: Exclusion 5) | 47.6 | 55.6 | 84.9 | – | – | – |
| CUCCUCAUGACGCCCAACCACAUGAGGAUCACCCAUGUGCAGGCUUUUUGUCGUCUUAUAAUAAAACCGAGGAUGCG [Edusveti] (puzzle: Sensor v3, turn-off variant 1) | 13.3 | 49.4 | 13 | – | – | – |
| AAGAAACAUGAGGAUCACCCAUGUGAGGAUAUGUAAAAUAAAAGAAAAGAAAGAAUAAACAGAAGGCACAAAGG [Mat - Mod of Hog D14] (puzzle: Exclusion 1) | 69.9 | 64.4 | 52.6 | – | – | – |
| UACGGUCCUAACAUGAGGAUCACCCAUGUAACAAAAGAAACCUAGGAUAUCCGCGCCGGAAGGAAGGAGAAGGAGGGCGUGGCA [Ededti] (Eterna round: R96, puzzle: Exclusion NG 3) | – | – | – | 50.7 | 51.8 | 34.3 |
| UUAAAUCAUGUAGGAUAUGCGUGGCGAAGCUAUGCAGAAGGACAUGAGGAUCACCCAUGUGCUAGCGUCCGCGUACGGAUGCAA [JL ENG1 1.21] (Eterna round: R96, puzzle: Exclusion NG 1) | – | – | – | 131 | 62 | 57.1 |
| AUACGCCAGGUAGGAUAUAGUACGUCGGCAACAUGAGGAUCACCCAUGUGGCCUCGUGUCUGGCACUAGAAGGGCCGAGGCCUU [Raatalave] (Eterna round: R96, puzzle: Exclusion NG 2) | – | – | – | 33.5 | 30.9 | 26.2 |
| UCAGUUCUGCAAGGAUAUCGUCCUAGUUUGGUACGAGAAGGUGCUUUUGUUUUUUCCUUGUGUUGACAUGAGGAUCACCCAUGU [JL JR Sub53 mod] (Eterna round: R96, puzzle: Exclusion NG 1) | – | – | – | – | – | 28.4 |
| AUCCUUAACAAGGAUAUCGGGCGGGAAAUUGUUUGAGAAGGUGUAACAUGAGGAUCACCCAUGUGGCGCGUGGA [-20.8, -18.9 kcal, A 28%] (Eterna round: R97, puzzle: Exclusion 6) | – | – | – | 54.6 | 56.6 | – |
| CAUGAUUGGCGAGGAUAUUGAUCUAGUUGGCGACGAGAAGGCGCCUGUCACAUGAGGAUCACCCAUGUGUGUCUGGUGAAUGAG [Ex NG1 #86] (Eterna round: R96, puzzle: Exclusion NG 1) | – | – | – | 82.5 | 63.3 | 48.4 |
| GGAUCGAAUGUGAGGAUAUGCUGGUCCUUGGAUCAGCAGAAGGCACAUGAGGAUCACCCAUGUGGUUCCGAUCC (Eterna round: R97, puzzle: Brourd's mod of Exclusion 4) | – | – | – | 161 | 876 | – |
| AACCUGAGGCUUUGCUUUAGGUGUACAUGAGGAUCACCCAUGUAGGAUAUGGUAGGCAAAGCUUACCAGAAGGACAUGUUAAUU [Mat - Exclusion NG 3 - Mod of JL - D37] (Eterna round: R96, puzzle: Exclusion NG 3) | – | – | – | 122 | 59.3 | 44.3 |
| GCUGACAAGCUGGAGACAGCAGAGACAUGAGGAUCACCCAUGUAGGAUAUCGAUGCGAAAAGCAUCGAGAAGGGCAUAGUCAGC [exng3 v2 a] (Eterna round: R96, puzzle: Exclusion NG 3) | – | – | – | 13.1 | 17.2 | 9.71 |

| Sequence | apparent KD of MS2 coat protein [1] [nM] | apparent KD of MS2 coat protein [2] [nM] | apparent KD of MS2 coat protein [3] [nM] | apparent KD of MS2 coat protein (input ligand: FMN 200 uM) [nM] | apparent KD of MS2 coat protein (input ligand: none) [nM] | apparent KD of MS2 coat protein [4] [nM] |
| --- | --- | --- | --- | --- | --- | --- |
| AUUUAAACAUAGGAUAUCGAAUUUAUCAUUUAACGAGAAGGAUGAACAUGAGGAUCACCCAUGUGGUAUCAUGG [Mat - Exclusion 6 - JL Mod - D4] (puzzle: Exclusion 6) | 398 | 279 | 368 | – | – | – |
| GCACGACAUCAGGAUAUGACUAGCUUCGGCUAGUCAGAAGGGAUGACAUGAGGAUCACCCAUGUGAUCACGUGC [E6/2-B1] (Eterna round: R97, puzzle: Exclusion 6) | – | – | – | 122 | 91.8 | – |
| AACCAGCGAGGAUAUUGUUGAUAAAACAUGAGGAUCACCCAUGUCACGUGAUCUUCCCAACAAGAAGGUGCACUAA [Xeoratdior] (Eterna round: R97, puzzle: Exclusion 5) | – | – | – | 652 | 301 | – |
| AGUACUAACACGAACGUGUUAGUACAAUAAGCUUGUGAAACAUGAGGAUCACCCAUGUCCUCAUAAGCUCGUCUUAU [salish99_TOv2_r3_034] (puzzle: Sensor v3, turn-off variant 2) | 17.9 | 775 | 16.2 | – | – | – |
| GGAUCGAGUGUGAGGAUAUGCUGGUCCUUGGAUCAGCAGAAGGCACAUGAGGAUCACCCAUGUGAUACCGAUCC [Eli bmx4 4.67] (Eterna round: R97, puzzle: Brourd's mod of Exclusion 4) | – | – | – | 736 | 71 | – |
| GAGUAGCUAGGAUAUCGAAAACAUCACAUGAGGAUCACCCAUGUGCCGGGUGCUCAGAUGCGAGAAGGAGCAAAGA [Reatququ] (puzzle: Exclusion 5) | 219 | 131 | 175 | – | – | – |
| CUGCGUCGUGUUAGGAUAUCCAGCGGUGCGCGCCAGGAGAAGGAACAUGAGGAUCACCCAUGUAAACCGAUGGC [Aratte] (puzzle: Brourd's mod of Exclusion 4) | – | 11 | – | – | – | – |
| GCCUACAGAGGAUAUACAAAUGUAUGAAACCUGUUUAGACGACAUGAGGAUCACCCAUGUAGAAGGCUGUGGGC [Eternabot (L1) Solution 85] (Eterna round: R97, puzzle: Exclusion 2) | – | – | – | 285 | 37.5 | – |
| AAGAAAGGUGACAUGGGCGACAUGAGGAUCACCCAUGUUACAAGCUUGUUGCUCGUCUUAUAAUUAACCCAUGUCAC [LRO Sensor-off var1-21 mod of Stov1-13-A1 by Brourd] (Eterna round: R97, puzzle: Sensor, turn-off variant 1) | – | – | – | 16.1 | 17.9 | – |
| CUUCACCCACCAGAGCUCACCCACAUACCAGCUCUGGUGACAUGAGGAUCACCCAUGUUUUUUGCCCGUCUUAUCUU [Intibima] (Eterna round: R96, puzzle: Sensor v3, turn-off variant 2) | – | – | – | 65 | 79.1 | 218 |
| UCAGCUUGUGUCAGGAUAUCCAGUCCGACGGGAGAGGAGAAGGGACAUGAGGAUCACCCAUGUAGGCGCCCUAC [Soerrecege] (Eterna round: R97, puzzle: Brourd's mod of Exclusion 4) | – | – | – | 63.8 | 461 | – |
| UCUUUGUUUGUGAGGAUAUCGGUGGAAUGGAUUGUCGAGAAGGCACAUGAGGAUCACCCAUGUGUGGGACAGCA [JR_BMEx4_Sub026] (Eterna round: R97, puzzle: Brourd's mod of Exclusion 4) | – | – | – | 24.3 | 22.3 | – |
| GUUGUUUAUGUAGGAUAUGCCUGGCGUGCCUAUGCAGAAGGACAUGAGGAUCACCCAUGUAUUGCGGUCUGCGUUCAGAUCGCU [salish99_ExNG1_r4_020] (Eterna round: R96, puzzle: Exclusion NG 1) | – | – | – | 23.2 | 22 | 15.8 |
| AAAAGAACGGCAGGAUAUGCAAGCACUGACCUCCCAAAAUAAAGAAACAUGAGGAUCACCCAUGUGCAGAAGGGCCAAAAGUGC [Vediusin] (Eterna round: R96, puzzle: Exclusion NG 2) | – | – | – | – | – | 10.4 |
| GGAGAGAGAGGAUAUGGAGGUUGGAACAUGAGGAUCACCCAUGUUAAACCUCAUGACCGACUAGAAGGCUCAGUCC [AK-MS2ROC-r4-exclusion5-9.1] (Eterna round: R97, puzzle: Exclusion 5) | – | – | – | 17.8 | 18.9 | – |
| GCAGCAUAGUCGGAAACGACAGAACAUGAGGAUCACCCAUGUCAGGAUAUGGUCUGGAUUACAGGCCAGAAGGGACAAAGCUGC [Eli exng3 - 008] (Eterna round: R96, puzzle: Exclusion NG 3) | – | – | – | 19.6 | 19.8 | 14.1 |
| UGAGCUUCAGGAUAUAUGUGGCGACCGUGAGGUCGAAGGUUACAUGAGGAUCACCCAUGUAGAAGGGAAGUUCU [Mat - Exclusion 2 - JL Mod - D19] (Eterna round: R97, puzzle: Exclusion 2) | – | – | – | 181 | 62.2 | – |
